From patent US20260049134A1 (UNIVERSITY OF FLORIDA RESEARCH FOUNDATION, published 2026)
Residue numbers refer to the chain shown, from its start. Names may count otherwise.

T1: PTPRG-Fc (ECD of human PTPRG, aa 20-736, fused to human Fc gamma 1) (human, UniProt P23470 20-736)
T1 construct: Made in-house in Expi293 cells; Used in ELISA and SPR; also called recombinant PTPRG-Fc; PTRPG; not shown: human IgG1 Fc (Fc gamma 1) after the hinge
T1 sequence: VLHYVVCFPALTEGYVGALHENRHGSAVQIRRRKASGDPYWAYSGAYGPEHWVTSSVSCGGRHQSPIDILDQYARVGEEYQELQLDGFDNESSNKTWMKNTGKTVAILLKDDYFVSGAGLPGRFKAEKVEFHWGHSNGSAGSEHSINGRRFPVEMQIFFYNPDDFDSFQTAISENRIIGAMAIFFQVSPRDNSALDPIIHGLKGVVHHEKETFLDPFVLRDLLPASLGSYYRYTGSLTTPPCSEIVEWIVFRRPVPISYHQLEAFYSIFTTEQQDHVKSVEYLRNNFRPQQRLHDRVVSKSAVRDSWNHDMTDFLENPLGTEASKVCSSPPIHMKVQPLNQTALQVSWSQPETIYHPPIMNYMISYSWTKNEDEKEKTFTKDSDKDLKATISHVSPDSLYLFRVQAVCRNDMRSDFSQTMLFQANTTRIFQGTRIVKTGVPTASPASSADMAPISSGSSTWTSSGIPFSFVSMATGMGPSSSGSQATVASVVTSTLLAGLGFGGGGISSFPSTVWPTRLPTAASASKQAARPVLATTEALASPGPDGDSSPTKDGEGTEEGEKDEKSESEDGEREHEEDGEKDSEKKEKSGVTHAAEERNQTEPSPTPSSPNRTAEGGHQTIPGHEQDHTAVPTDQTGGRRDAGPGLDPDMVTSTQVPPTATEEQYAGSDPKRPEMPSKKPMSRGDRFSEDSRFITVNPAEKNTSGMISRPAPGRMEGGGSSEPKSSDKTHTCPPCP

T2: GARS-His (Sino Biological) (human, UniProt P41250 37-739, limits assumed)
T2 construct: Bought; also called GARS1; glycyl-tRNA synthetase; not shown: His tag of the bought protein
T2 sequence: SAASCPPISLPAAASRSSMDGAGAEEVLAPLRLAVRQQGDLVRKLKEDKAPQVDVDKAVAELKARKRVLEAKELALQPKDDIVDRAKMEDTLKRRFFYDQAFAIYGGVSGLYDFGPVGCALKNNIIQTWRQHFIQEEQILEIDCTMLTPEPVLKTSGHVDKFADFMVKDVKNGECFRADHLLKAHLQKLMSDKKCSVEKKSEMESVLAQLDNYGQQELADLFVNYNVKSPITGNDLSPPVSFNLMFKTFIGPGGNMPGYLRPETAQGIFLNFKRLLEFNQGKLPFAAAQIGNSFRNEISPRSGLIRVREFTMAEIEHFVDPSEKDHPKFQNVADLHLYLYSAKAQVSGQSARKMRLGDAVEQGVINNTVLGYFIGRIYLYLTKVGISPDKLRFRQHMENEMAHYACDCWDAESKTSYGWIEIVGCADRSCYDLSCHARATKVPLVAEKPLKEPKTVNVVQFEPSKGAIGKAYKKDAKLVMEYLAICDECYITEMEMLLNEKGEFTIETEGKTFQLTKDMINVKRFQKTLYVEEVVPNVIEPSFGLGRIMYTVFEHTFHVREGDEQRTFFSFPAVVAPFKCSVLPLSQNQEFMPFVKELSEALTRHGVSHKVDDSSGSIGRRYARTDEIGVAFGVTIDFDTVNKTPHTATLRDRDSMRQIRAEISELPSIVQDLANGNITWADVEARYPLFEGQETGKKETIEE

B1: TH9-0022 (antibody, human IgG1, kappa, L234A L235A, V domains shown)
VH: QSLEESGGRLVTPGTPLTLTCTVSGFSLSSYAMNWVRQAPGKGLEWIGIINSYGSTYYASWAKGRFTISKTSTTVDLKITSPTTEDTATYFCARVTYDSYGYGYAPYGMDLWGPGTLVTVSS
VL: LVMTQTPSSTSNAVGGTVTIKCQASQSIGNVLAWYQQKPGQPPKLLIYAASTLASGVPSRVGGSRSGTEYTLTISGVQREDAATYYCLGSDSDSDIAFGGGTELEILR
notes: also called TH9-022; negative control
B2: HW-70 chimeric rabbit-human IgG1 LA/LA/PG (antibody, V domains shown)
VH: QSLEESGGRLVTPGTPLTLTCTVSGFSLSSNAMSWVRQAPGKGLEWIGTIDGYGYTYYASWAKGRFTVSKTSTTVDLKITSPTTEDTATYFCAREIYLGSNFWGPGTLVTISS
VL: SFVLTQPASVQVNLGQTVSLTCTADTLSRRYASWYQQKPGQAPVLLIYRDTSRPSGVPDRFSGSSSGNTATLTISGAQAGDEADYYCATADGSGSSYQFVFGGGTQLTVTG
notes: Fc-silenced (L234A/L235A/P329G) IgG1, lambda; Alexa Fluor 647-labeled in single-step flow cytometry; Cluster C-1
B3: HW-25 chimeric rabbit-human IgG1 LA/LA/PG (antibody, V domains shown)
VH: QSLEESGGRLVTPGTPLTLTCTVSGFSLSSYAMGWVRQAPGKGLEWIGIIDSRGSTYYATWAKGRFTISKTSTTVDLKITSPTTEDTATYFCAREDSYYYDSFNLWGPGTLVTVSS
VL: B2 VL with A90S, F99C
notes: as for B2

Key:
[1] = target: T1, PTPRG-Fc (ECD of human PTPRG, aa …); assay: ELISA on coated PTPRG-Fc
Experimental: (§1) Recombinant purified ECDs (50-150 ng) of each putative target protein were coated, incubated with 150 ng of the indicated primary antibody, and binding was detected using a peroxidase-conjugated anti-human Fab secondary antibody. Heatmap represents averages of technical triplicates. (8B) Target validation via siRNA knockdown. H929 cells were transfected with siRNA pools targeting the putative antibody targets ICAM1, CADM1, and PTPRG. Cells were then subjected to cognate IgG binding analysis via flow cytometry. (NT, non-targeting siRNA).
(§2) ELISA ELISA was conducted as described previously. Briefly, 50-150 ng of antigen was coated overnight in half-area 96-well plates at 4° C., blocked with 3% BSA at 37° C. for 1 h, and 150 ng of chimeric rabbit/human IgG1 was added, incubating for 2 h at 37° C. […] After incubating at 37° C. for 15 min-1 h (depending on intensity of controls), data were acquired using a SpectraMax M5 plate reader (Molecular Devices).

[2] = target: T2, GARS-His (Sino Biological); assay: ELISA on coated GARS-His
Experimental: as §1, §2

[3] = target: T3, PTPRG, endogenous in H929 multiple myeloma cells (human, UniProt P23470 20-1445); assay: flow cytometry, H929 + CADM1 siRNA; None 0.89
T3 construct: Native protein on H929 cells (flow cytometry, siRNA knockdown) and in H929 lysates (IP/MS); also called phosphatase receptor type γ

[4] = target: T3, PTPRG, endogenous in H929 multiple …; assay: flow cytometry, H929 + PTPRG siRNA (target knocked down); None 490

T3 sequence (P23470 20-1445 limits assumed): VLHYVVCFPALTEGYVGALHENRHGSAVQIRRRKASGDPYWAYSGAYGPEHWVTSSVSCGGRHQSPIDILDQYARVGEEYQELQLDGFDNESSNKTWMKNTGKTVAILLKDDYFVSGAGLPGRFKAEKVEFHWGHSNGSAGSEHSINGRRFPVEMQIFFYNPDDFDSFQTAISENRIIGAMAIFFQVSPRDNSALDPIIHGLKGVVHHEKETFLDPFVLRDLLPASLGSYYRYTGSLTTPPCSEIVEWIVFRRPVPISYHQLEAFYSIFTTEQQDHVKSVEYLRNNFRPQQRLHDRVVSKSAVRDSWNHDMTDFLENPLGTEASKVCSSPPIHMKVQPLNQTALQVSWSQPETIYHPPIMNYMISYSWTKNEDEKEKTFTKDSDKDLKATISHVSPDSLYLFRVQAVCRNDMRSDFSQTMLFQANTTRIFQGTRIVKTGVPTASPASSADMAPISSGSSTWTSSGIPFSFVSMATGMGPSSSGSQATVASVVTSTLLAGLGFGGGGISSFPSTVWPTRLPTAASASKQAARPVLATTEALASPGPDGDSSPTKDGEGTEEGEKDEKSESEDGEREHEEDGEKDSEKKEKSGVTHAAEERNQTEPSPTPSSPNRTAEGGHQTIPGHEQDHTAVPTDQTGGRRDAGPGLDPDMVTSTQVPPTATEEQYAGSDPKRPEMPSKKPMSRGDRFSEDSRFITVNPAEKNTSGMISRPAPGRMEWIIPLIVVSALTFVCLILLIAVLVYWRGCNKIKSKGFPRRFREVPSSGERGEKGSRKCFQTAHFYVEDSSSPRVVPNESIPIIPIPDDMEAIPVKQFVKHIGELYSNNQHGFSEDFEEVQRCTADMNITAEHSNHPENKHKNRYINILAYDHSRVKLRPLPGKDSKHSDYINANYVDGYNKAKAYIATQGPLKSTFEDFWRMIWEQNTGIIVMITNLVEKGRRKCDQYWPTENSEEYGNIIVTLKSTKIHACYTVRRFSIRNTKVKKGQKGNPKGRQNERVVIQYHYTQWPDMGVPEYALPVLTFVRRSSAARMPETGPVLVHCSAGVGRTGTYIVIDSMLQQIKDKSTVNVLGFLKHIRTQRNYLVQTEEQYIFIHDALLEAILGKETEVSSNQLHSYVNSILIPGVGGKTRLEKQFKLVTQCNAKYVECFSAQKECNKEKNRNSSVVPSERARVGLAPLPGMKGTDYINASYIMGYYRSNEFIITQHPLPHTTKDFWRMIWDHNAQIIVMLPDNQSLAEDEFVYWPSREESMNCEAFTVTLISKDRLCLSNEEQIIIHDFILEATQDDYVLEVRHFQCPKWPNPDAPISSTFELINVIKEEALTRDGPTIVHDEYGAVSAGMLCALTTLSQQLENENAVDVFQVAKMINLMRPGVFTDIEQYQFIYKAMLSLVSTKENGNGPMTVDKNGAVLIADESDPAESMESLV

Binder	binding result [1]	binding result [2]	Cells stained (%) [3] [%]	mAb binding (MFI) [4]
B1	no binding (tested: 150 ng IgG1 per well)	no binding (tested: 150 ng IgG1 per well)	–	–
B2	–	no binding (tested: 150 ng IgG1 per well)	98.7	840
B3	–	no binding (tested: 150 ng IgG1 per well)	97.7	839
